The data set addresses Ago2 PAZ domain (human, UniProt Q9UKV8 227-371). The data set is described as follows: ITC.

Ago2 PAZ domain, sequence (Q9UKV8 227-371): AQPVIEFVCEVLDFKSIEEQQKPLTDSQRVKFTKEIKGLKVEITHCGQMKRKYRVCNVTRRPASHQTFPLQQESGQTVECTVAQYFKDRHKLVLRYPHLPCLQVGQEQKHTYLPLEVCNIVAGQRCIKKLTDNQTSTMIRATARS

Take AGAGUCACGCUUU (ssRNA) [native RNA]: binding was put at a Kd of 600 nM.
